This data set can be described thus: soluble on expression in E. coli; label from the status in PepcDB or PDB records.
In the case of “MSLKQLVVKIETDNGIIGWGEAQSPVSPNTTATIIKDIVEPLTIGKDIYDVESIWHNNYSAKRERGHYTGFYIDAICGVDIAIWDAIGKSLKMPTCKAMGGAHRKSVALYNGIGGTEPEEVADQAEWSVSKGYKFVKMHLKETLEKDIEIARKVRERVGDSIGIMIDVHMGFDTFNVTKLGKELEKLNLLWLESPSDPTDIPGLCEISRSLDIPIANGEWTRTKYEMREIFEKRAYDISMPDIARTGLTGGKQIASIAQLYNIPIAPHVGGGGIVSVASTLQFSLNTPNFLIMEHSEQGHAVKAMILSESFDAENGQYSLPNKPGLGIDVDENKLEKYKINPSEGHHHHHH”, the “soluble on expression in E. coli” value was “soluble”.
For the sequence “MSLKQTNPFVYSNDNKRYHTWNYCLREEFGQKTYKVALDGGFDCPNRDGTVAHGGCTFCSAAGSGDFAGNRALDLKIQFQQVRDKMQTKWKDGKCIAYFQAFTNTHAPVAELREKFETVLNEPGVVGLSIATRPDCLPDDVVEYLAELNERTYLWLELGLQSAHDETGRLINRAHDYDCYVEGVRKLQKHNIRICTHIINGLPKETPEMMMETTRKVVESGVDGIKIHLLHLLKGTPMVEDYKKGDLEFLTRDGYVNLVADQLEILPPEMVIHRITGDGGVDDLIGPVWSLNKFEVLNAIDAELVRRDSWQGKLYQPVEVNAKEGHHHHHH”, the “soluble on expression in E. coli” value is “soluble”.
Next, “MSLKRITMQDIADRLNISKNSVSQALRGKEGVSKETRELVKRVAKEMGYEYPASRAKSRGKPPRQIALIASDRTFSLKFFGEIYLSIEQEALSHGMKLHIQSVNKEQKERLLLPSFIEEKQVDGVIVLSHISTEYIQQIVATGIPTVLVDHHHPNIPADAVLTNNRFGAYVAVQHLLELNHTDIAFVGDVNYSPSYQERYEGYLLALKDYGVKPNEEWMFCQAQEDETVIAGYIRELKRQPTAWFCVNDGLGFFVSTGLQQYGLKVPDDVSVCSFDNGQLSQIATPKITTVDIDLKRYGKRAVELLRWRWDNPNEPFQEVLLSTKLIKRESTAAKPTREGHHHHHH”: “soluble”.
Turning to “MSLKRIYGSNRYETSIMVSKEGWDKSSYAVISRGDNFADALCAVPLSKKYNAPILLIGKDKLNNNLKSELKRLNVSKVFITGGEGVISKTLEGEIKNIPNIKEVKRLGGKDRYETSKLIAESVGCNGEIVVTAGTNSSDTLSISPIAANKNMPILLTAKDKNLMQKYLKSNKVNKTFVIGGEKCVSKEIENILPNVERIYGENRYETNEKIIKRFSNSLDFKNVYIALAQSQRGDEFADALSSAALAAQKNSPIILIYKDIYKNTKDILNTKLSNESIVSILGGEKLISDNILDNLAISKNEGHHHHHH”, the “soluble on expression in E. coli” value is reported as “not soluble”.
Next, “MSLKSLKAKFRKSDTNEWNKNDDRLLQAVENGDAEKVASLLGKKGASATKHDSEGKTAFHLAAAKGHVECLRVMITHGVDVTAQDTTGHSALHLAAKNSHHECIRRLLQSKCPAESVDSSGKTALHYAAAQGCLQAVQILCEHKSPINLKDLDGNIPLLLAVQNGHSEICHFLLDHGADVNSRNKSGRTALMLACEIGSSNAVEALIKKGADLNLVDSLGYNALHYSKLSENAGIQSLLMSKISQDADLKTEGHHHHHH”: “soluble”; “MSLKSTVLLIDDDQDVLDSYLHLMSIAGLTAKAVIDPTQAMSHIQPDWNGVVLLDMYMPQLHGMELLKQIKAVDDKIPVIVITGHGDIPMAVEAVKMGACDFLEKPINPPQLLTLIKQHLELRRSFIEQKLLLSRSVKRELVGKSAQMEQIRSHVAQYALLNRHVVIVGESGCGRHTIAYLIHQLTTNNGHLPWVELVASAKTEWSTVEPKVQESAGGTLLIDHIELLSEEVQRNVVQSLLNQERLNRPRTRVIAVIDQPPEQLIAQNQLLPELYYLLNQGQIDVPLLRQRPDDIAALFHYFLKQSCYKLGKPMPNVEPHYLALLRAHQWPGNVRELRNVAELYAIGIVKLAGKERLYNQEEMLSPLDELVDDYEKQVIEDALFLFSGRVADAANYLQVPRKKLYLRMKKHGLEKDAFKAREGHHHHHH”: “soluble”; “MSLKSYRPIELAKMFNLHSNTIRFYESIGYISKASRKPNGYREFTDKHILQLTICRHILGYRYTNRHIRDTGKLIIICSAESKLIEGKQYAQDYIKIIQNEIEIAEKTAQLLHKWAELKRDTDNSDSIEKFYTRNEVACLLGVTSEAVRNWERNDLIKSDKRGYRNAVLFNNIDLDRIRIIYMLRQTGYSMSAIHRCLMVYDKGQTELVVAALNKTDERELLSVGDCWLSELKKLESAAEEIPLIFDKLKESEGHHHHHH”: “soluble”.
Take “MSLKTNKLINKSFRFKQFSIEEGTCGMPISTDGVLLGSWAFSLSPTTILDIGCGTGLLSLMCAQRFPHAHITALDIEQTAYLAAEHNRQQSPWAERIECQHADILHWQPSKRFAAIICNPPYFNSGETAQHQVRATARHTISLQHQALIERLPQLLEPDGVASFILPKAEGEDFIALARQAGLFVGRYCQVQPTTDKPVHRLLFELHLSPCLPVETRLVIREQQGYSEAFCQLTRDFYLKMSEGHHHHHH”: the “soluble on expression in E. coli” value was “soluble”.
Turning to “MSLKVDSFSLPLSSPLATARETISQRSGFVVRYDHRGETGVGEATPLPGWTESLDDCQRGLNDAATVAAGGGHTDVLLSLDAASVPAARHGFATALLDADARADGVPLYQWFDSERHCNRVPVNATVGDGSPAETADAVERAVEAGYDCCKMKVGKRTVDEDVARVRTVRERVGDDVTLRADANGAWSRDRAQEAFDRLAPLDVAYVEQPLPADDLTGHAGLRGNGVGVALDESLVDRRVDSVLDADAADVLILKPMVLGGPGNAHTLALRAREQGVEPVVTTTIDAVVARLAALHVAAAIPDVAACGLATGDRLAADLAPDPTTVTDGAMSVPQSTGLGIDPTEVGTDAEGHHHHHH”, the “soluble on expression in E. coli” value is “soluble”.
On to “MSLKVTFEQLKAAFNRVLISRGVDSETADACAEMFARTTESGVYSHGVNRFPRFIQQLENGDIIPDAQPKRITSLGAIEQWDAQRSIGNLTAKKMMDRAIELAADHGIGLVALRNANHWMRGGSYGWQAAEKGYIGICWTNSIAVMPPWGAKECRIGTNPLIVAIPSTPITMVDMSMSMFSYGMLEVNRLAGRQLPVDGGFDDEGNLTKEPGVIEKNRRILPMGYWKGSGMSIVLDMIATLLSDGASVAEVTQDNSDEYGISQIFIAIEVDKLIDGPTRDAKLQRIMDYVTSAERADENQAIRLPGHEFTTLLAENRRNGITVDDSVWAKIQALEGHHHHHH”, for which the “soluble on expression in E. coli” value is reported as “soluble”.
With “MSLKYVIGIDLGTSAVKTILVNQNGKVCAETSKRYPLIQEKAGYSEQNPEDWVQQTIEALAELVSISNVQAKDIDGISYSGQMHGLVLLDQDRQVLRNAILWNDTRTTPQCIRMTEKFGDHLLDITKNRVLEGFTLPKMLWVKEHEPELFKKTAVFLLPKDYVRFRMTGVIHTEYSDAAGTLLLHITRKEWSNDICNQIGISADICPPLVESHDCVGSLLPHVAAKTGLLEKTKVYAGGADNACGAIGAGILSSGKTLCSIGTSGVILSYEEEKERDFKGKVHFFNHGKKDSFYTMGVTLAAGYSLDWFKRTFAPNESFEQLLQGVEAIPIGANGLLYTPYLVGERTPHADSSIRGSLIGMDGAHNRKHFLRAIMEGITFSLHESIELFREAGKSVHTVVSIGGGAKNDTWLQMQADIFNTRVIKLENEQGPAMGAAMLAAFGSGWFESLEECAEQFIREAAAFYPKAQNVQKYKTLFDLYKNIYTHTKDLNTALKSFRKNEGHHHHHH”, the “soluble on expression in E. coli” value was “soluble”.
In the case of “MSLKYYLAPMEGITGFIYRNSYEKFFGGIDKYFAPFVVPNSSKSLKTKELRDVLPENNKGINLVPQILTNDSEGFISTARKLKQLGYNEINLNLGCPSGTVVGKKRGSGFLAHKEELDKFLEEIFKIDDMKLSIKTRLGMDKPEEFYELIKIYNKYPMEELIIHPRTRQDFYANKPNLEVFKDAISLSKNPICYNGDIFTVEDHNKLIETFPEVDKIMLGRGILANPALMNEILNNEFMDKKVLKEFHDEVFNKYREVFNEDRNAMFRMKELWGYMIYMFSNNKKYAKKIKKAQKVVEYNQAVTSLFLEQDILKGAGLFSSEEGHHHHHH”, the “soluble on expression in E. coli” value was “soluble”.
For “MSLLAGVKLEKRDKTLVDATEALAGKAVGFYFSAHWCPPCRGFTPILKDFYEEVEDEFEVVFVSFDRSESDLKMYMSEHGDWYHIPYGNDAIKELSTKYGVSGIPALIIVKPDGTEVTKDGRNDVQNGKDPKATVAKWKA”, the “soluble on expression in E. coli” value is “not soluble”.
“MSLLITRFIADHQGHREGPDGLRWGVESICTQLTELGVPIAPSTYYDHINREPSRRELRDGELKEHISRVHAANYGVYGARKVWLTLNREGIEVARCTVERLMTKLGLSGTTRGKARRTTIADPATARPADLVQRRFGPPAPNRLWVADLTYVSTWAGFAYVAFVTDAYARRILGWRVASTMATSMVLDAIEQAIWTRQQEGVLDLKDVIHHTDRGSQYTSIRFSERLAEAGIQPSVGAVGSSYDNALAETINGLYKTELIKPGKPWRSIEDVELATARWVDWFNHRRLYQYCGDVPPVELEAAYYAQRQRPAEGHHHHHH”: the “soluble on expression in E. coli” value is “not soluble”.
Then “MSLLKINSQLFAIEDTLDDLAAAFLNLEVVRTYKAAQKAFLADKHLQKEISNFQHYNEDYNDQKTFIKYRPEVKQLRRKIFEKKRQLDLNEKVIALRRAEVDLQEVLAKIAQKIAESVSSDVFVDTGLPLAPHKPPHKKGYGNNIKEREGHHHHHH”, with “soluble”.
With “MSLLKISGKFFDEDNVDNLIVLRQSIKELADNGFRVGIVTGGGSTARRYIKLAREIGIGEAYLDLLGIWASRLNAYLVMFSLQDLAYMHVPQSLEEFIQDWSHGKVVVTGGFQPGQSTAAVAALVAEASSSKTLVVATNVDGVYEKDPRIYADVKLIPHLTTQDLRKILEGSQSVQAGTYELLDPLAIKIVERSKIRVIVMNYRKLNRIIDILKGEEVSSIIEPVEGHHHHHH”, the “soluble on expression in E. coli” value is “not soluble”.
For “MSLLRIEPDLSHFKAGTYRFTPQMTVREMLKLLESGKEAQFPLRLVEGMRLSDYLKQLREAPYIKHTLSDDKYATVAQALELENPEWIEGWFWPDTWMYTANTTDVALLKRAHKKMVKAVDSAWEGRADGLPYKDKNQLVTMASIIEKETAVASERDQVASVFINRLRIGMRLQTDPTVIYGMGERYNGKLSRADLETPTAYNTYTITGLPPGAIATPGADSLKAAAHPAKTPYLYFVADGKGGHTFNTNLASHNKSVQDYLKVLKEKNAQEGHHHHHH”, the “soluble on expression in E. coli” value is listed as “soluble”.
Regarding “MSLLSAFDTTAQRLGTASQNIEKDFWVCWTLDALFNGLSERGPRLLFKGGTSLSKGFGLINRFSEDIDVTVFRDDIGEPATIEELNVLSRNKRRARLDAIKEACQAYINGPLRAELTAILQKRLQAAGLSAGDARVEADGADSDGQTLLIWYPAATPRSDYVRAAIKIESGAKSALDPNSEVPIKAYVDDDLPALDLTVPAVRTVDPERTFWDKVVILHGLRRWFDKRGELRGGGQRVSRHYYDLHRLTAAPVGAAAIDDAALGADCVAHARMFFNRPDYDLATAAPGSFALAPHDEMIEQLRTDYRAMQGMIFGDPPSFEAVLKSINSLETQLNKDIANEGGPTREGHHHHHH”, the “soluble on expression in E. coli” value is recorded as “soluble”.
With “MSLLVQFDEFKGHSHEQFMEELDTIMLVSINKLHDNMDLRRRLLIYSVFGKVFQHRKMGILAPHGQEETF”, the “soluble on expression in E. coli” value is “not soluble”.
In the case of “MSLMPLLDKLREQYGVGPVCSELHIAPSTYYHCQQQRHHPDKRSARAQHDDWLKREIQRVYDENHQVYGVRKVWRQLLREGIRVARCTVARLMAVMGLAGVLRGKKVRTTISRKAVAAGDRVNRQFVAERPDQLWVADFTYVSTWQGFVYVAFIIDVFAGYIVGWRVSSSMETTFVLDALEQALWARRPSGTIHHSDKGSQYVSLAYTERLKEAGLLASTGSTGDSYDNAMAESINGLYKAEVIHRKSWKNRAEVELATLTWVDWYNNRRLLGRLGHAPPAEAEKAYYASIGNDDLAAEGHHHHHH”, the “soluble on expression in E. coli” value was “not soluble”.

Source of the values: the DeepSol protein solubility set.
